Source: patent publication US20240226298A1 (JUNO THERAPEUTICS, published 2024)
Positions count from the first letter of the chain named.

B1: JH2 CAR/LoD/b (other)
chain: QVQLQESGPGLVKPSETLSLTCTVSGGSISSYYWSWIRQPPGKGLEWIGYINNSGSTNYNPSLKSRVTISVDTSKNQFSLKLSSVTAADTAVYYCAREDDYWGQGTLVTVSSGGGGSDIQMTQTTSSLSASLGDRVTISCRASQDISKYLNWYQQKPDGTVKLLIYHTSRLHSGVPSRFSGSGSGTDYSLTISNLEQEDIATYFCQQGNTLPYTFGGGTKLEITGSTSGSGKPGSGEGSTKGEVKLQESGPGLVAPSQSLSVTCTVSGVSLPDYGVSWIRQPPRKGLEWLGVIWGSETTYYNSALKSRLTIIKDNSKSQVFLKMNSLQTDDTAIYYCAKHYYYGGSYAMDYWGQGTSVTVSSGGGGSEIVMTQSPATLSLSPGERATLSCRASQIISSSYLSWYQQKPGQAPRLLIYGASTRATGIPARFSGSGSGTDFTLTISSLQPEDFAVYYCQQDYDFPFTFGPGTKVDIKRESKYGPPCPPCPMFWVLVVVGGVLACYSLLVTVAFIIFWVKRGRKKLLYIFKQPFMRPVQTTQEEDGCSCRFPEEEEGGCELRVKFSRSADAPAYQQGQNQLYNELNLGRREEYDVLDKRRGRDPEMGGKPRRKNPQEGLYNELQKDKMAEAYSEIGMKGERRRGKGHDGLYQGLSTATKDTYDALHMQALPPR
B2: JH2 CAR/LoP (other)
chain: DIQMTQTTSSLSASLGDRVTISCRASQDISKYLNWYQQKPDGTVKLLIYHTSRLHSGVPSRFSGSGSGTDYSLTISNLEQEDIATYFCQQGNTLPYTFGGGTKLEITGGGGSQVQLQESGPGLVKPSETLSLTCTVSGGSISSYYWSWIRQPPGKGLEWIGYINNSGSTNYNPSLKSRVTISVDTSKNQFSLKLSSVTAADTAVYYCAREDDYWGQGTLVTVSSGGGGSGGGGSGGGGSEIVMTQSPATLSLSPGERATLSCRASQIISSSYLSWYQQKPGQAPRLLIYGASTRATGIPARFSGSGSGTDFTLTISSLQPEDFAVYYCQQDYDFPFTFGPGTKVDIKRGGGGSEVKLQESGPGLVAPSQSLSVTCTVSGVSLPDYGVSWIRQPPRKGLEWLGVIWGSETTYYNSALKSRLTIIKDNSKSQVFLKMNSLQTDDTAIYYCAKHYYYGGSYAMDYWGQGTSVTVSSESKYGPPCPPCPMFWVLVVVGGVLACYSLLVTVAFIIFWVKRGRKKLLYIFKQPFMRPVQTTQEEDGCSCRFPEEEEGGCELRVKFSRSADAPAYQQGQNQLYNELNLGRREEYDVLDKRRGRDPEMGGKPRRKNPQEGLYNELQKDKMAEAYSEIGMKGERRRGKGHDGLYQGLSTATKDTYDALHMQALPPR
B3: JH1 CAR/LoP (other)
chain: DIQMTQTTSSLSASLGDRVTISCRASQDISKYLNWYQQKPDGTVKLLIYHTSRLHSGVPSRFSGSGSGTDYSLTISNLEQEDIATYFCQQGNTLPYTFGGGTKLEITGGGGSQVQLVQSGAEVKKPGASVKVSCKASGYTFTSYAMHWVRQAPGQRLEWMGWINAGNGNTKYSQKFQGRVTITRDTSASTAYMELRSLRSDDTAVYYCASGPGRLPVVWGQGTLVTVSSGGGGSGGGGSGGGGSSYVLTQPPSVSVAPGKTARITCGGNNIGSKSVHWYQQKPGQAPVLVVYDDSDRPSGIPERFSGSNSGNTATLTISRVEAGDEADYYCQVWDSSSDHVVFGGGTKLTVLGGGGSEVKLQESGPGLVAPSQSLSVTCTVSGVSLPDYGVSWIRQPPRKGLEWLGVIWGSETTYYNSALKSRLTIIKDNSKSQVFLKMNSLQTDDTAIYYCAKHYYYGGSYAMDYWGQGTSVTVSSESKYGPPCPPCPMFWVLVVVGGVLACYSLLVTVAFIIFWVKRGRKKLLYIFKQPFMRPVQTTQEEDGCSCRFPEEEEGGCELRVKFSRSADAPAYQQGQNQLYNELNLGRREEYDVLDKRRGRDPEMGGKPRRKNPQEGLYNELQKDKMAEAYSEIGMKGERRRGKGHDGLYQGLSTATKDTYDALHMQALPPR
B4: JH2 CAR/LiD/b (other)
chain: DIQMTQTTSSLSASLGDRVTISCRASQDISKYLNWYQQKPDGTVKLLIYHTSRLHSGVPSRFSGSGSGTDYSLTISNLEQEDIATYFCQQGNTLPYTFGGGTKLEITGSTSGSGKPGSGEGSTKGEVKLQESGPGLVAPSQSLSVTCTVSGVSLPDYGVSWIRQPPRKGLEWLGVIWGSETTYYNSALKSRLTIIKDNSKSQVFLKMNSLQTDDTAIYYCAKHYYYGGSYAMDYWGQGTSVTVSSGGGGSEIVMTQSPATLSLSPGERATLSCRASQIISSSYLSWYQQKPGQAPRLLIYGASTRATGIPARFSGSGSGTDFTLTISSLQPEDFAVYYCQQDYDFPFTFGPGTKVDIKRGGGGSGGGGSGGGGSQVQLQESGPGLVKPSETLSLTCTVSGGSISSYYWSWIRQPPGKGLEWIGYINNSGSTNYNPSLKSRVTISVDTSKNQFSLKLSSVTAADTAVYYCAREDDYWGQGTLVTVSSESKYGPPCPPCPMFWVLVVVGGVLACYSLLVTVAFIIFWVKRGRKKLLYIFKQPFMRPVQTTQEEDGCSCRFPEEEEGGCELRVKFSRSADAPAYQQGQNQLYNELNLGRREEYDVLDKRRGRDPEMGGKPRRKNPQEGLYNELQKDKMAEAYSEIGMKGERRRGKGHDGLYQGLSTATKDTYDALHMQALPPR
B5: JH2 CAR/LiD/a (other)
chain: DIQMTQTTSSLSASLGDRVTISCRASQDISKYLNWYQQKPDGTVKLLIYHTSRLHSGVPSRFSGSGSGTDYSLTISNLEQEDIATYFCQQGNTLPYTFGGGTKLEITGSTSGSGKPGSGEGSTKGEVKLQESGPGLVAPSQSLSVTCTVSGVSLPDYGVSWIRQPPRKGLEWLGVIWGSETTYYNSALKSRLTIIKDNSKSQVFLKMNSLQTDDTAIYYCAKHYYYGGSYAMDYWGQGTSVTVSSGGGGSQVQLQESGPGLVKPSETLSLTCTVSGGSISSYYWSWIRQPPGKGLEWIGYINNSGSTNYNPSLKSRVTISVDTSKNQFSLKLSSVTAADTAVYYCAREDDYWGQGTLVTVSSGGGGSGGGGSGGGGSEIVMTQSPATLSLSPGERATLSCRASQIISSSYLSWYQQKPGQAPRLLIYGASTRATGIPARFSGSGSGTDFTLTISSLQPEDFAVYYCQQDYDFPFTFGPGTKVDIKRESKYGPPCPPCPMFWVLVVVGGVLACYSLLVTVAFIIFWVKRGRKKLLYIFKQPFMRPVQTTQEEDGCSCRFPEEEEGGCELRVKFSRSADAPAYQQGQNQLYNELNLGRREEYDVLDKRRGRDPEMGGKPRRKNPQEGLYNELQKDKMAEAYSEIGMKGERRRGKGHDGLYQGLSTATKDTYDALHMQALPPR
B6: JH4 CAR/LiD (other)
chain: B5 chain with P290S, N302H, N303Y, S306N, I405S, I406V, S409N, Y470F
B7: JH3 CAR/LoD (other)
chain: EIVMTQSPATLSLSPGERATLSCRASQSVSSNYFSWYQQKPGQAPRLLIYGASTRATGIPARFSGSGSGTDFTLTISSLQPEDFAVYYCQQDYDFPFTFGPGTKVDIKRGGGGSGGGGSDIQMTQTTSSLSASLGDRVTISCRASQDISKYLNWYQQKPDGTVKLLIYHTSRLHSGVPSRFSGSGSGTDYSLTISNLEQEDIATYFCQQGNTLPYTFGGGTKLEITGSTSGSGKPGSGEGSTKGEVKLQESGPGLVAPSQSLSVTCTVSGVSLPDYGVSWIRQPPRKGLEWLGVIWGSETTYYNSALKSRLTIIKDNSKSQVFLKMNSLQTDDTAIYYCAKHYYYGGSYAMDYWGQGTSVTVSSGGGGSGGGGSQVQLQESGPGLVKPSETLSLTCTVSGGSISNYYWSWIRQPPGKGLEWIGYIYYSGSTIYNPSLKSRVTISVDTSKNQFSLKLSSVTAADTAVYYCAGDSSGIDYWGQGTLVTVSSESKYGPPCPPCPMFWVLVVVGGVLACYSLLVTVAFIIFWVKRGRKKLLYIFKQPFMRPVQTTQEEDGCSCRFPEEEEGGCELRVKFSRSADAPAYQQGQNQLYNELNLGRREEYDVLDKRRGRDPEMGGKPRRKNPQEGLYNELQKDKMAEAYSEIGMKGERRRGKGHDGLYQGLSTATKDTYDALHMQALPPR

The binders below were run against T1, B-cell activating factor receptor (BAFF-R) (human, UniProt Q96RJ3 1-184) (assay: cell-based or functional assay).

Row | Binder | decrease in IFN-γ production with sBAFF, alone or relative to FMC63 scFv alone (JeKo-1 co-culture) | decrease of IFN-γ with FMC63 scFv + sBAFF compared to the inhibition from FMC63 scFv alone (JeKo-1 co-culture) | decrease in IFN-γ production with FMC63 scFv + sBAFF relative to FMC63 scFv alone (JeKo-1 co-culture)
1 | B1 | ≤ 20% | ≤ 10% | –
2 | B2 | – | ≤ 10% | > 50%
3 | B3 | – | – | > 50%
4 | B4 | ≤ 20% | ≤ 10% | –
5 | B5 | ≤ 20% | ≤ 10% | –
6 | B6 | ≤ 20% | ≤ 10% | –
7 | B7 | ≤ 20% | ≤ 10% | –

Biological target: T1, B-cell activating factor receptor …
Test: cell-based or functional assay
Remark: another data set of the same source

Row | Binder | inhibition of IFN-γ production by CAR T cells when JeKo-1 target cells were preincubated with both FMC63 scFv and sBAFF (20 µg/mL each), relative to target-only co-culture; legend: ++ = High, >80%
8 | B2 | > 80%
9 | B3 | > 80%

What follows are binders tested against T2, B-lymphocyte antigen CD19 (CD19) (human, UniProt P15391 20-556) (assay: cell-based or functional assay).
T2 sequence (looked up): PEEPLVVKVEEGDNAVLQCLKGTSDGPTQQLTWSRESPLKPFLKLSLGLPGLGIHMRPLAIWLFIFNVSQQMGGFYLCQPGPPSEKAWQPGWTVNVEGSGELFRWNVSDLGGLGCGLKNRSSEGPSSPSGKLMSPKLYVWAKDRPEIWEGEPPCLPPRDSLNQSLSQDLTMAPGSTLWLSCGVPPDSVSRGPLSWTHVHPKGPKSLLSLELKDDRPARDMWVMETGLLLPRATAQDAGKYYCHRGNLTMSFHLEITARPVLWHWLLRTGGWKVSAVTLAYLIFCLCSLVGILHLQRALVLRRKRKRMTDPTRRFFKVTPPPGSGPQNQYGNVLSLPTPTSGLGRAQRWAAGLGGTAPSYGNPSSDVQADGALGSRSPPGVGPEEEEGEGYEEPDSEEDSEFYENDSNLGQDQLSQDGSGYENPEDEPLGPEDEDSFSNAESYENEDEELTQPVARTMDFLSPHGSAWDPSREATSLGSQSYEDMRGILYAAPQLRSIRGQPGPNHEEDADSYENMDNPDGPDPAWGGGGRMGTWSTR

Row | Binder | inhibition of IFN-γ production by CAR T cells when JeKo-1 target cells were preincubated with both FMC63 scFv and sBAFF (20 µg/mL each), relative to target-only co-culture; legend: ++ = High, >80%
10 | B2 | > 80%
11 | B3 | > 80%
